± gives the standard deviation of the averaged measurements.
B1: library; a variant is named by its letters at N, in order (parent)
chain: GCUGUCACCGAGAAACUGUGAAGUAUAUCUUAAACCUGGGCACUUAAAAGAUAUAUGGAGUUAGUAGUGCAACCUGCUCGGUCUGAUGAGUCCNNNNNNGGACGAAACAGC

How the values were obtained:
cyclic di-GMP [1] = variants of: B1; assay: normalized RNA/DNA level without ligand (relative to sTRSVctl = 100) (log10 (% of sTRSVctl)); HEK293T; ligand: cyclic di-GMP (c-di-GMP-II aptamer); higher = less ribozyme self-cleavage, higher mRNA level; details: reporter: mCherry (pCS4076), ligand present: no
Procedure, shortened: (§1)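 Library plasmids carrying ribozyme switches linked to mCherry, or to eGFP in some ligand experiments, were transfected into HEK293T at 4 µg per 6-well well, with any ligand added 1 h earlier. Seventy-two hours on, total RNA was extracted with EDTA and reverse-transcribed, amplified, barcoded and sequenced. RNA level was RNA over DNA reads normalized to a spiked-in non-cleaving sequence or to the top sequences, then scaled and log-transformed. The top set was 25 sequences, the transform was ×100 and log10, and sequences needed ≥100 DNA reads.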

cyclic di-GMP [2] = variants of: B1; assay: normalized RNA/DNA level with ligand (relative to sTRSVctl = 100) (log10 (% of sTRSVctl)); HEK293T; ligand: cyclic di-GMP (c-di-GMP-II aptamer); ligand concentration (+) RNA-Seq: 1 mM; higher = less ribozyme self-cleavage, higher mRNA level; details: reporter: mCherry (pCS4076), ligand present: yes
Procedure, shortened: as §1

Variant | normalized RNA/DNA level without ligand (log10) (cyclic di-GMP [1]) | normalized RNA/DNA level with ligand (log10) (cyclic di-GMP [2])
GCUGUCACCGAGAAACUGUGAAGUAUAUCUUAAACCUGGGCACUUAAAAGAUAUAUGGAGUUAGUAGUGCAACCUGCUCGGUCUGAUGAGUCCUGAUUCGGACGAAACAGC [UGAUUC] | 1.71 ± 0.019 | 1.86 ± 0.08
GCUGUCACCGAGAAACUGUGAAGUAUAUCUUAAACCUGGGCACUUAAAAGAUAUAUGGAGUUAGUAGUGCAACCUGCUCGGUCUGAUGAGUCCUGAUUAGGACGAAACAGC [UGAUUA] | 1.704 ± 0.011 | 1.84 ± 0.11
GCUGUCACCGAGAAACUGUGAAGUAUAUCUUAAACCUGGGCACUUAAAAGAUAUAUGGAGUUAGUAGUGCAACCUGCUCGGUCUGAUGAGUCCUGAUUGGGACGAAACAGC [UGAUUG] | 1.718 ± 0.017 | 1.88 ± 0.088
GCUGUCACCGAGAAACUGUGAAGUAUAUCUUAAACCUGGGCACUUAAAAGAUAUAUGGAGUUAGUAGUGCAACCUGCUCGGUCUGAUGAGUCCCGCAACGGACGAAACAGC [CGCAAC] | 1.62 ± 0.05 | 1.78 ± 0.12
GCUGUCACCGAGAAACUGUGAAGUAUAUCUUAAACCUGGGCACUUAAAAGAUAUAUGGAGUUAGUAGUGCAACCUGCUCGGUCUGAUGAGUCCCGAUCUGGACGAAACAGC [CGAUCU] | 1.52 ± 0.053 | 1.7 ± 0.073
GCUGUCACCGAGAAACUGUGAAGUAUAUCUUAAACCUGGGCACUUAAAAGAUAUAUGGAGUUAGUAGUGCAACCUGCUCGGUCUGAUGAGUCCCGAUCGGGACGAAACAGC [CGAUCG] | 1.8 ± 0.04 | 1.87 ± 0.1
GCUGUCACCGAGAAACUGUGAAGUAUAUCUUAAACCUGGGCACUUAAAAGAUAUAUGGAGUUAGUAGUGCAACCUGCUCGGUCUGAUGAGUCCGGCAAAGGACGAAACAGC [GGCAAA] | 1.55 ± 0.074 | 1.65 ± 0.16
GCUGUCACCGAGAAACUGUGAAGUAUAUCUUAAACCUGGGCACUUAAAAGAUAUAUGGAGUUAGUAGUGCAACCUGCUCGGUCUGAUGAGUCCAGAUUCGGACGAAACAGC [AGAUUC] | 1.7 ± 0.021 | 1.85 ± 0.093
GCUGUCACCGAGAAACUGUGAAGUAUAUCUUAAACCUGGGCACUUAAAAGAUAUAUGGAGUUAGUAGUGCAACCUGCUCGGUCUGAUGAGUCCAGAUUUGGACGAAACAGC [AGAUUU] | 1.66 ± 0.052 | 1.81 ± 0.17
GCUGUCACCGAGAAACUGUGAAGUAUAUCUUAAACCUGGGCACUUAAAAGAUAUAUGGAGUUAGUAGUGCAACCUGCUCGGUCUGAUGAGUCCAGAUUGGGACGAAACAGC [AGAUUG] | 1.58 ± 0.049 | 1.77 ± 0.081
GCUGUCACCGAGAAACUGUGAAGUAUAUCUUAAACCUGGGCACUUAAAAGAUAUAUGGAGUUAGUAGUGCAACCUGCUCGGUCUGAUGAGUCCUGAUCGGGACGAAACAGC [UGAUCG] | 1.77 ± 0.053 | 1.84 ± 0.15
GCUGUCACCGAGAAACUGUGAAGUAUAUCUUAAACCUGGGCACUUAAAAGAUAUAUGGAGUUAGUAGUGCAACCUGCUCGGUCUGAUGAGUCCUGAUCUGGACGAAACAGC [UGAUCU] | 1.72 ± 0.023 | 1.86 ± 0.11
GCUGUCACCGAGAAACUGUGAAGUAUAUCUUAAACCUGGGCACUUAAAAGAUAUAUGGAGUUAGUAGUGCAACCUGCUCGGUCUGAUGAGUCCCGAUUGGGACGAAACAGC [CGAUUG] | 1.7 ± 0.019 | 1.89 ± 0.03
GCUGUCACCGAGAAACUGUGAAGUAUAUCUUAAACCUGGGCACUUAAAAGAUAUAUGGAGUUAGUAGUGCAACCUGCUCGGUCUGAUGAGUCCCGAUUCGGACGAAACAGC [CGAUUC] | 1.63 ± 0.022 | 1.81 ± 0.075
GCUGUCACCGAGAAACUGUGAAGUAUAUCUUAAACCUGGGCACUUAAAAGAUAUAUGGAGUUAGUAGUGCAACCUGCUCGGUCUGAUGAGUCCCGAUUUGGACGAAACAGC [CGAUUU] | 1.43 ± 0.11 | 1.64 ± 0.13
GCUGUCACCGAGAAACUGUGAAGUAUAUCUUAAACCUGGGCACUUAAAAGAUAUAUGGAGUUAGUAGUGCAACCUGCUCGGUCUGAUGAGUCCCGAUUAGGACGAAACAGC [CGAUUA] | 1.28 ± 0.11 | 1.43 ± 0.12
GCUGUCACCGAGAAACUGUGAAGUAUAUCUUAAACCUGGGCACUUAAAAGAUAUAUGGAGUUAGUAGUGCAACCUGCUCGGUCUGAUGAGUCCUGCAAAGGACGAAACAGC [UGCAAA] | 1.74 ± 0.0094 | 1.84 ± 0.1
GCUGUCACCGAGAAACUGUGAAGUAUAUCUUAAACCUGGGCACUUAAAAGAUAUAUGGAGUUAGUAGUGCAACCUGCUCGGUCUGAUGAGUCCAGAUGUGGACGAAACAGC [AGAUGU] | 1.56 ± 0.036 | 1.77 ± 0.054
GCUGUCACCGAGAAACUGUGAAGUAUAUCUUAAACCUGGGCACUUAAAAGAUAUAUGGAGUUAGUAGUGCAACCUGCUCGGUCUGAUGAGUCCAGAUGGGGACGAAACAGC [AGAUGG] | 1.55 ± 0.089 | 1.73 ± 0.082
GCUGUCACCGAGAAACUGUGAAGUAUAUCUUAAACCUGGGCACUUAAAAGAUAUAUGGAGUUAGUAGUGCAACCUGCUCGGUCUGAUGAGUCCAGAUCUGGACGAAACAGC [AGAUCU] | 1.72 ± 0.045 | 1.85 ± 0.084
GCUGUCACCGAGAAACUGUGAAGUAUAUCUUAAACCUGGGCACUUAAAAGAUAUAUGGAGUUAGUAGUGCAACCUGCUCGGUCUGAUGAGUCCAGAUCGGGACGAAACAGC [AGAUCG] | 1.72 ± 0.051 | 1.88 ± 0.061
GCUGUCACCGAGAAACUGUGAAGUAUAUCUUAAACCUGGGCACUUAAAAGAUAUAUGGAGUUAGUAGUGCAACCUGCUCGGUCUGAUGAGUCCCGAUGUGGACGAAACAGC [CGAUGU] | 1.75 ± 0.025 | 1.91 ± 0.11
GCUGUCACCGAGAAACUGUGAAGUAUAUCUUAAACCUGGGCACUUAAAAGAUAUAUGGAGUUAGUAGUGCAACCUGCUCGGUCUGAUGAGUCCCGAUGGGGACGAAACAGC [CGAUGG] | 1.67 ± 0.07 | 1.81 ± 0.073
GCUGUCACCGAGAAACUGUGAAGUAUAUCUUAAACCUGGGCACUUAAAAGAUAUAUGGAGUUAGUAGUGCAACCUGCUCGGUCUGAUGAGUCCUGAUGGGGACGAAACAGC [UGAUGG] | 1.68 ± 0.081 | 1.83 ± 0.066
GCUGUCACCGAGAAACUGUGAAGUAUAUCUUAAACCUGGGCACUUAAAAGAUAUAUGGAGUUAGUAGUGCAACCUGCUCGGUCUGAUGAGUCCUGAUGCGGACGAAACAGC [UGAUGC] | 1.754 ± 0.01 | 1.84 ± 0.09
GCUGUCACCGAGAAACUGUGAAGUAUAUCUUAAACCUGGGCACUUAAAAGAUAUAUGGAGUUAGUAGUGCAACCUGCUCGGUCUGAUGAGUCCGGAUGCGGACGAAACAGC [GGAUGC] | 1.7 ± 0.079 | 1.83 ± 0.067

From the supplement of paper PMC6757056
